Measured values from patent publication US20140072613A1, “Compositions and Methods for Treating Cutaneous Scarring” (priority 2012, published 2014).

Experiments:
Assay in all cases: cell-based or functional assay
BRK(h) (human) = BRK(h) (human) (UniProt Q13882)
EGFR(L858R)(h) (human) = EGFR(L858R)(h) (human) (UniProt P00533)
EphA3(h) (human) = target: T1, EphA3(h) (human) (UniProt P29320)
T1 sequence (looked up): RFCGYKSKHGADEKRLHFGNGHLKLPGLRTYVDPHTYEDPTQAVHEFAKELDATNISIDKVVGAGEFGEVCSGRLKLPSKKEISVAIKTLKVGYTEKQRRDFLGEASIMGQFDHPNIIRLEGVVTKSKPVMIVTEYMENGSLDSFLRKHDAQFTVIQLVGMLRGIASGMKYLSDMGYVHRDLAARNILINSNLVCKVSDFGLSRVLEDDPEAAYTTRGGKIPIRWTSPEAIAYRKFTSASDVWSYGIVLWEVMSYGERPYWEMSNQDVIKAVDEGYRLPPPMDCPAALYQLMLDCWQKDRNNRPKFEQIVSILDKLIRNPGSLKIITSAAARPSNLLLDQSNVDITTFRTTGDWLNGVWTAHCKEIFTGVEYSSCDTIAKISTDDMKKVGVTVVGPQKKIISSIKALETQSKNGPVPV

EphB2(h) (human) = EphB2(h) (human) (UniProt P29323)
FGFR1(h) (human) = FGFR1(h) (human) (UniProt P11362)
HIPK2(h) (human) = HIPK2(h) (human) (UniProt Q9H2X6)
IRAK4(h) (human) = target: T2, IRAK4(h) (human) (UniProt Q9NWZ3)
T2 sequence (looked up): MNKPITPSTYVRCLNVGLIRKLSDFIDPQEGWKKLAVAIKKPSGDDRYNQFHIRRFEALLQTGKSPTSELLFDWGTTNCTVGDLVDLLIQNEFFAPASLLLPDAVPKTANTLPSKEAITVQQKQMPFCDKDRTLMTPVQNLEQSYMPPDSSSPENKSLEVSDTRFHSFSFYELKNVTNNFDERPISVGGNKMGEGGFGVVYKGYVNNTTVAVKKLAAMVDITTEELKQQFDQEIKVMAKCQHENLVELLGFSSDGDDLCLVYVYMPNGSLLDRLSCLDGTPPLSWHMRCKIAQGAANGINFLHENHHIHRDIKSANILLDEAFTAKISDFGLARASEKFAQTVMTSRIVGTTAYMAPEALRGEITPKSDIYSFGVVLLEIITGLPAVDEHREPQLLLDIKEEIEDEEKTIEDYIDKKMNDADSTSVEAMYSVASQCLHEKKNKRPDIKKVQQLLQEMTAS

Lck(h) (human) = Lck(h) (human) (UniProt P06239)
MAPK2(h) (human) = MAPK2(h) (human) (UniProt P28482)
MLCK(h) (human) = target: MLCK(h) (human)
MLK1(h) (human) = MLK1(h) (human) (UniProt P80192)
MST1(h) (human) = target: T3, MST1(h) (human) (UniProt Q13043)
T3 sequence (looked up): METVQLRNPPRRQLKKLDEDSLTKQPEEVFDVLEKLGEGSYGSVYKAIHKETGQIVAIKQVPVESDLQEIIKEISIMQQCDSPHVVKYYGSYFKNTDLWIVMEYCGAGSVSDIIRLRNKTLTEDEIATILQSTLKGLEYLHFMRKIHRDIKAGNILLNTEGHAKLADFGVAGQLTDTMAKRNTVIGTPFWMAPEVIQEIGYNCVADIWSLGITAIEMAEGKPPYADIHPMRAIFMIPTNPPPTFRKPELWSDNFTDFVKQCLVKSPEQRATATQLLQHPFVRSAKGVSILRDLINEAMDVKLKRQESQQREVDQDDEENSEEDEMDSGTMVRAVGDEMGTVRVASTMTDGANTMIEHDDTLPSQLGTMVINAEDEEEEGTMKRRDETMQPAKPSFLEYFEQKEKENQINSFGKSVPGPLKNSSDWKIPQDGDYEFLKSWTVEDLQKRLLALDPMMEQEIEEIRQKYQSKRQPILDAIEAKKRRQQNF

Met(D1246N)(h) (human) = Met(D1246N)(h) (human) (UniProt P08581)
NEK6(h) (human) = NEK6(h) (human) (UniProt Q9HC98)
NEK7(h) (human) = NEK7(h) (human) (UniProt Q8TDX7)
PAK2(h) (human) = PAK2(h) (human) (UniProt Q13177)
PDGFRα(h) (human) = PDGFRα(h) (human) (UniProt P16234)
PKCθ(h) (human) = PKCθ(h) (human) (UniProt Q04759)
Pim-3(h) (human) = Pim-3(h) (human) (UniProt Q86V86)
SRPK1(h) (human) = SRPK1(h) (human) (UniProt Q96SB4)
Tie2(h) (human) = Tie2(h) (human) (UniProt Q02763)
Txk(h) (human) = target: T4, Txk(h) (human) (UniProt P42681)
T4 sequence (looked up): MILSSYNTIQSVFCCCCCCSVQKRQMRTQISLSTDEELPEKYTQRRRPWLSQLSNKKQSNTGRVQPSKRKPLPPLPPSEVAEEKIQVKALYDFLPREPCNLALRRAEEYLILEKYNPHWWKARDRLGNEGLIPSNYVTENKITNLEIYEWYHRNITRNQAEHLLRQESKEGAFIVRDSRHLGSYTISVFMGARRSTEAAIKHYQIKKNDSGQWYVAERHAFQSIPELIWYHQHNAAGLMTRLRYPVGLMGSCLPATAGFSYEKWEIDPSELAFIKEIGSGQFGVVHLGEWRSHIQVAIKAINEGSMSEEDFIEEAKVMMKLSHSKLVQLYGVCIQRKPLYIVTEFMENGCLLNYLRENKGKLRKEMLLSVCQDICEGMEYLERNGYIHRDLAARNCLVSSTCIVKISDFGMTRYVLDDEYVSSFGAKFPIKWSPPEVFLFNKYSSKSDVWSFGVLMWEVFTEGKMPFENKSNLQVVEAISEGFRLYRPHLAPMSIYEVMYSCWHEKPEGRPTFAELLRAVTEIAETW

WNK2(h) (human) = WNK2(h) (human) (UniProt Q9Y3S1)
cKit(h) (human) = cKit(h) (human) (UniProt P10721)
cKit(h) (human), sequence (P10721 544-976): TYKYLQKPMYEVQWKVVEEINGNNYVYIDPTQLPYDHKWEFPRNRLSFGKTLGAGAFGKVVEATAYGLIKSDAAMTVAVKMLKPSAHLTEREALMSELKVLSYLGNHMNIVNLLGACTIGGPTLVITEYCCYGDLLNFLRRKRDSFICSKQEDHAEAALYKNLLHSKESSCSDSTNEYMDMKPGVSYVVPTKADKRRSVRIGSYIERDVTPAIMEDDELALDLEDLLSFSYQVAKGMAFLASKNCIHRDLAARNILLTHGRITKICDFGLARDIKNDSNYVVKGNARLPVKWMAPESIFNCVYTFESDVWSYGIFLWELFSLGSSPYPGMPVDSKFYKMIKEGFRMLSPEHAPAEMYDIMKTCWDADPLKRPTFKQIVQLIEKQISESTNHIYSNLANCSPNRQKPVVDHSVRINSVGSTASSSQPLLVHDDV

Lck(h) (human), sequence (P06239 whole entry): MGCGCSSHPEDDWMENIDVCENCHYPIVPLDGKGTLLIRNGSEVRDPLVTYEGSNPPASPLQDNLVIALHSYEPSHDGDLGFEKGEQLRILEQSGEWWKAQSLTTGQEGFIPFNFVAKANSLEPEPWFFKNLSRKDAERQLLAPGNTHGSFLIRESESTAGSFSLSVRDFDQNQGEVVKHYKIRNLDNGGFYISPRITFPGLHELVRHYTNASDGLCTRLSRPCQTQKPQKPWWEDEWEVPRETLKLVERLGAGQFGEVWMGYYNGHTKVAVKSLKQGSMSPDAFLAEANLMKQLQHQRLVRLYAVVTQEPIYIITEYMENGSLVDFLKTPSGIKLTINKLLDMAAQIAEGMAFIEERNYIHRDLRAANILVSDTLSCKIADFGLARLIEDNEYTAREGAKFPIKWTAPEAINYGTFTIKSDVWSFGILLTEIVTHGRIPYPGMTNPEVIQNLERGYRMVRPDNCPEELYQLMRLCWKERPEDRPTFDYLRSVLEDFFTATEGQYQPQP
HIPK2(h) (human), sequence (Q9H2X6 165-564 limits assumed): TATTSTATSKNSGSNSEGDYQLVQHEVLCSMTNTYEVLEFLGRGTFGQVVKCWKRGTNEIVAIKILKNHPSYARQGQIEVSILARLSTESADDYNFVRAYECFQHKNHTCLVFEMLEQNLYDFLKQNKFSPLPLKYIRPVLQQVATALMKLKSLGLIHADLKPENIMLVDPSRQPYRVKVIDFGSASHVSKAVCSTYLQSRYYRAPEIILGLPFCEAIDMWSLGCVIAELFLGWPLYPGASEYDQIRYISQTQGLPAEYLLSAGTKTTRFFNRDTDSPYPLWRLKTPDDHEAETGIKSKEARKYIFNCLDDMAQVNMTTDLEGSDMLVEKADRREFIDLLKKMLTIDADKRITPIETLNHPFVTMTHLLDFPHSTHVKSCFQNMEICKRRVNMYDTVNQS
PDGFRα(h) (human), sequence (P16234 550-1089 limits assumed): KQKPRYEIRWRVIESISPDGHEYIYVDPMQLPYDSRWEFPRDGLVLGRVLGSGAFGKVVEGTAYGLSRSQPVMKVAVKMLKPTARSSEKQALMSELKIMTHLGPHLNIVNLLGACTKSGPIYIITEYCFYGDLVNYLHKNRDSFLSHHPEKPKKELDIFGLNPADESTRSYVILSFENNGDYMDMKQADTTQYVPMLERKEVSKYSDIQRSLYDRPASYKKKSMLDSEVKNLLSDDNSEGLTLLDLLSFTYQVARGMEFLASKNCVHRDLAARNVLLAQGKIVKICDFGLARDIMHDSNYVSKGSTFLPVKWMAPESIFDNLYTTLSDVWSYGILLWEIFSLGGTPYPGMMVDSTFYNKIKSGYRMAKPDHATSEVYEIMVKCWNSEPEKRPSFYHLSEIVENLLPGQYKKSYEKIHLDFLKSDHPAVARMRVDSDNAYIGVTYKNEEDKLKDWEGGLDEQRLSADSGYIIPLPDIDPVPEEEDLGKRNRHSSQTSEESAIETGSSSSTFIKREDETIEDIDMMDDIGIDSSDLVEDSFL
MLK1(h) (human), sequence (P80192 132-413 limits assumed): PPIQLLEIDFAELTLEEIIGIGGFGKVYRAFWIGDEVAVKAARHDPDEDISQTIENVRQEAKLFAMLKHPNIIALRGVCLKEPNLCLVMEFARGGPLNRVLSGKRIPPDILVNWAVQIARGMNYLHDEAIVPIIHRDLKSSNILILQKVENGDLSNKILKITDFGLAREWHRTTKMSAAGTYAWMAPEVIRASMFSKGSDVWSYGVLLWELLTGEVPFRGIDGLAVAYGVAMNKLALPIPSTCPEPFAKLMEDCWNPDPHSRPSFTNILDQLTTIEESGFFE
SRPK1(h) (human), sequence (Q96SB4 whole entry): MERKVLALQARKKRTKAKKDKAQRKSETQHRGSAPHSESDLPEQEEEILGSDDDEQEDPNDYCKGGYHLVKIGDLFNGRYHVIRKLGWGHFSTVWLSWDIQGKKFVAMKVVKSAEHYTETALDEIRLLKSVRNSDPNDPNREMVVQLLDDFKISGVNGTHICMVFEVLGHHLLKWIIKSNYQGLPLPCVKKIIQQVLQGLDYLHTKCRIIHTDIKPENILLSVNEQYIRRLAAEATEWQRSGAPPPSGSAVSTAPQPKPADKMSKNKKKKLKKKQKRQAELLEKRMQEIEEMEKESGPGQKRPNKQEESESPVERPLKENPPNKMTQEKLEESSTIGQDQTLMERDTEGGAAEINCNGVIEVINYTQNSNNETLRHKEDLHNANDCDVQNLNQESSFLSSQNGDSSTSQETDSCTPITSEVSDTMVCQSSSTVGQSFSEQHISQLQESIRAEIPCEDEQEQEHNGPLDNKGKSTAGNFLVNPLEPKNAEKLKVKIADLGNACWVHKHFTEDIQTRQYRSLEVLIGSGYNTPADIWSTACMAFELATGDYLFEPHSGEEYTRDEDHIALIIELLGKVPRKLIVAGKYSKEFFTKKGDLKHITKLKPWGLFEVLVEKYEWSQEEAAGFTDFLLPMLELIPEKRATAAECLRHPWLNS
EphB2(h) (human), sequence (P29323 565-986 limits assumed): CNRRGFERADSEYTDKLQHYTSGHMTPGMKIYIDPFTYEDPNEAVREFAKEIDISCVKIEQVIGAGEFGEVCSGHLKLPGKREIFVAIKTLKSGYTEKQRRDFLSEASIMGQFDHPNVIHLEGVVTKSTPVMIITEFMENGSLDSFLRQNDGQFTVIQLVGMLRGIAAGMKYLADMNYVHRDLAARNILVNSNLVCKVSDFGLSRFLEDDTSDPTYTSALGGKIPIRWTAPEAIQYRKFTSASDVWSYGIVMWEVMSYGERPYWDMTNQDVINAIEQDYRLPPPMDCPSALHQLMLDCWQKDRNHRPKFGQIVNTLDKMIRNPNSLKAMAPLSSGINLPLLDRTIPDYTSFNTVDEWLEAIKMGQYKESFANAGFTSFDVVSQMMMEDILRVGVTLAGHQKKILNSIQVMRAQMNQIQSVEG
WNK2(h) (human), sequence (Q9Y3S1 166-489 limits assumed): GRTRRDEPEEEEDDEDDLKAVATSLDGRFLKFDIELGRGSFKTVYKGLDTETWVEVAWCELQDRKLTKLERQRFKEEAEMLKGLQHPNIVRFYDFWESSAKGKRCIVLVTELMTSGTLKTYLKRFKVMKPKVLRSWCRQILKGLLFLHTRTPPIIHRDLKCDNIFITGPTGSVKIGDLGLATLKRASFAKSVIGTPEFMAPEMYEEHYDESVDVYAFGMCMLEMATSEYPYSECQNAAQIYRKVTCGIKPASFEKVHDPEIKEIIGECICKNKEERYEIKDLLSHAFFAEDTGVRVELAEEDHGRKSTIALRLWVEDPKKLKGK
NEK6(h) (human), sequence (Q9HC98 whole entry): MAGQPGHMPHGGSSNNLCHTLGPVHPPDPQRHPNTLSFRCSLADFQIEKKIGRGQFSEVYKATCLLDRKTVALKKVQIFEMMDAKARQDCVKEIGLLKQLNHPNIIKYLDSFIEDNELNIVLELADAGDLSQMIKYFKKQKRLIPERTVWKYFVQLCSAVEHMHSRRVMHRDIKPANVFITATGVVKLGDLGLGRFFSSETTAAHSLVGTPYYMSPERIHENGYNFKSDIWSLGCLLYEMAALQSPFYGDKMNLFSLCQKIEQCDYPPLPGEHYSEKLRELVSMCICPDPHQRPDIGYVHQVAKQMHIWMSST
PKCθ(h) (human), sequence (Q04759 whole entry): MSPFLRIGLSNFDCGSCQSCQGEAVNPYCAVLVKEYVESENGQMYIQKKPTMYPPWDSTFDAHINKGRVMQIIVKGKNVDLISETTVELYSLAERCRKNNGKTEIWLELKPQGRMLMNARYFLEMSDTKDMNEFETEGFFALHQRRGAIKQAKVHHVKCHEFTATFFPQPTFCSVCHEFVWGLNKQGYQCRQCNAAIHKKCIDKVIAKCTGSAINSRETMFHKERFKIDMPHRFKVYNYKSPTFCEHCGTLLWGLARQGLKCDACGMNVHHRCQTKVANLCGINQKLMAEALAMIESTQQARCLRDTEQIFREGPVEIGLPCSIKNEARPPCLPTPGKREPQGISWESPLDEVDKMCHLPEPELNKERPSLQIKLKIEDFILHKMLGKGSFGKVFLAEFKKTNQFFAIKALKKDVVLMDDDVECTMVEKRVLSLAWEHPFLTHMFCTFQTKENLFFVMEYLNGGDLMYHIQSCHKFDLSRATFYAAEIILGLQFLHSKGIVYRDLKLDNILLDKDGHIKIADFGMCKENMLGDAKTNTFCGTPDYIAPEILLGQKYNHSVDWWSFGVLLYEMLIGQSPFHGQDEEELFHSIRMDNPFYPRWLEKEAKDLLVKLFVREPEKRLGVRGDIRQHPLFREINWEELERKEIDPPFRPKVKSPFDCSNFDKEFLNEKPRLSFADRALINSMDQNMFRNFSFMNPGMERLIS

## MMI-0500 (peptide)
BRK(h) (human)
  % activity, 100 µM: 41%
EGFR(L858R)(h) (human)
  % activity, 100 µM: 26%
EphA3(h) (human)
  % activity, 100 µM: 33%
EphB2(h) (human)
  % activity, 100 µM: 70%
FGFR1(h) (human)
  % activity, 100 µM: 18%
HIPK2(h) (human)
  % activity, 100 µM: 38%
IRAK4(h) (human)
  % activity, 100 µM: 3%
Lck(h) (human)
  % activity, 100 µM: 359%
MAPK2(h) (human)
  % activity, 100 µM: 60%
MLCK(h) (human)
  % activity, 100 µM: 0%
MLK1(h) (human)
  % activity, 100 µM: 43%
MST1(h) (human)
  % activity, 100 µM: 3%
Met(D1246N)(h) (human)
  % activity, 100 µM: 90%
NEK6(h) (human)
  % activity, 100 µM: 49%
NEK7(h) (human)
  % activity, 100 µM: 89%
PAK2(h) (human)
  % activity, 100 µM: 44%
PDGFRα(h) (human)
  % activity, 100 µM: 40%
PKCθ(h) (human)
  % activity, 100 µM: 62%
Pim-3(h) (human)
  % activity, 100 µM: 37%
SRPK1(h) (human)
  % activity, 100 µM: 80%
Tie2(h) (human)
  % activity, 100 µM: 22%
Txk(h) (human)
  % activity, 100 µM: 10%
WNK2(h) (human)
  % activity, 100 µM: 8%
cKit(h) (human)
  % activity, 100 µM: 45%
